Measured values from article PMC8777244 (Biochemistry and Biophysics Reports, 2022).
Read-outs that look alike come from different tables or passages of the source. Blank lines part the entries; values can stand above or below the binder they belong to. Where no end group is shown, it is not given here. The star is where a group is joined. Dansyl = CN(C)c1cccc2c(S(=O)(=O)*)cccc12; MBP = maltose binding protein fusion

Assays:
[1] = target: T1, recombinant 6xHis-tagged calmodulin (UniProt P0DP23 1-149); test: ITC
[2] = target: T1, recombinant 6xHis-tagged calmodulin; test: ITC; remark: listed apart in the source
Dansyl-labeled CaM = Dansyl-labeled CaM (UniProt P0DP23 1-149, Dansyl label (site not stated)); test: other fluorescence titration
[3] = target: T1, recombinant 6xHis-tagged calmodulin; test: other fluorescence titration
SEC [4] = target: the molecule itself; test: SEC
SEC [5] = target: the molecule itself; test: SEC; remark: listed apart in the source
[6] = target: T1, recombinant 6xHis-tagged calmodulin; test: ITC; remark: listed apart in the source
[7] = target: T1, recombinant 6xHis-tagged calmodulin; test: ITC; remark: listed apart in the source
[8] = target: T1, recombinant 6xHis-tagged calmodulin; test: fluorescence polarisation
[9] = target: T1, recombinant 6xHis-tagged calmodulin; test: ITC; remark: listed apart in the source
[10] = target: N-terminal half domain of CaM (residues 1-75) fused to cyan fluorescent protein (UniProt P0DP23 1-75); test: ITC
[11] = target: C-terminal half domain of CaM (residues 76-149) fused to blue fluorescent protein (UniProt P0DP23 76-149); test: ITC
[12] = target: T1, recombinant 6xHis-tagged calmodulin; test: other fluorescence titration; remark: listed apart in the source

B1: MBP-fused human Nox5β dehydrogenase domain residues 605-719 (domain or fragment)
chain: SLLTKLEMDQAEEAQYGRFLELHMYMTSALGKNDMKAIGLQMALDLLANKEKKDSITGLQTRTQPGRPDWSKVFQKVAAEKKGKVQVFFCGSPALAKVLKGHCEKFGFRFFQENF
Ka [1]: ~1e+06 M⁻¹
Ka [2]: 894000 M⁻¹
Ka (Dansyl-labeled CaM): 2.52e+06 M⁻¹
stoichiometry N (Dansyl-labeled CaM): 1.02 [Peptide]/[Protein]

B2: MBP-fused human Nox5β dehydrogenase domain residues 584-719 (domain or fragment, UniProt Q96PH1-4 584-719, looked up)
chain: KLHKVDFIWINRDQRSFEWFVSLLTKLEMDQAEEAQYGRFLELHMYMTSALGKNDMKAIGLQMALDLLANKEKKDSITGLQTRTQPGRPDWSKVFQKVAAEKKGKVQVFFCGSPALAKVLKGHCEKFGFRFFQENF
stoichiometry N (SEC [4]): ~3
Ka [2]: 933000 M⁻¹
Ka (Dansyl-labeled CaM): 1.82e+06 M⁻¹
stoichiometry N (Dansyl-labeled CaM): 0.89 [Peptide]/[Protein]
stoichiometry N (SEC [5]): ~4

B4: MBP-fused human Nox5β dehydrogenase domain residues 528-719 (domain or fragment)
chain: PTRRIFASEHAVLIGAGIGITPFASILQSIMYRHQKRKHTCPSCQHSWIEGVQDNMKLHKVDFIWINRDQRSFEWFVSLLTKLEMDQAEEAQYGRFLELHMYMTSALGKNDMKAIGLQMALDLLANKEKKDSITGLQTRTQPGRPDWSKVFQKVAAEKKGKVQVFFCGSPALAKVLKGHCEKFGFRFFQENF
Ka [2]: 2.71e+06 M⁻¹
Ka (Dansyl-labeled CaM): 1.39e+06 M⁻¹
stoichiometry N (Dansyl-labeled CaM): 0.92 [Peptide]/[Protein]

Now from value to binder:

Ka [3]: 4.95e+06 M⁻¹
Binder: Dansyl-RPDWSKVFQKVAAEKKGKV [N-terminal Dansyl-labeled human Nox5β CMBD peptide]

Ka [2]: 1.39e+06 M⁻¹
Ka (Dansyl-labeled CaM): 4.9e+06 M⁻¹
stoichiometry N (Dansyl-labeled CaM): 0.92 [Peptide]/[Protein]
B3: MBP-fused human Nox5β dehydrogenase domain residues 665-719 (domain or fragment)
chain: {MBP}-TRTQPGRPDWSKVFQKVAAEKKGKVQVFFCGSPALAKVLKGHCEKFGFRFFQENF
modifications: cysteine pairing not given here

Ka [6]: 1.02e+06 M⁻¹
dH (per mole CMBD) [7]: -3.81 kcal/mol
stoichiometry N [7]: 1.83
Ka [8]: 8.64e+06 M⁻¹
Ka [9]: 878000 M⁻¹
dH (per mole protein) [9]: -6.94 kcal/mol
stoichiometry N [9]: 1.82 [peptide]/Protein]
Ka [10]: 2.42e+06 M⁻¹
dH (per mole protein) [10]: -3.94 kcal/mol
stoichiometry N [10]: 0.89 [peptide]/Protein]
Ka [11]: 950000 M⁻¹
dH (per mole protein) [11]: -4.02 kcal/mol
stoichiometry N [11]: 1.04 [peptide]/Protein]
Ka [12]: 1.71e+07 M⁻¹
Binder: RPDWSKVFQKVAAEKKGKV [human Nox5β CaM-binding domain (CMBD) peptide, residues 671-689]
